Here are results for three molecules from article PMC3319311 (Nature, 2012).

The target of experiment [1] is T1, human OTUB1 (OTU domain-containing ubiquitin aldehyde-binding protein 1) (human, UniProt Q96FW1 1-271). Description: fluorescence polarisation.
The next experiment addresses hOTUB1 F193W (human, UniProt Q96FW1 1-271, F193W). Description: fluorescence polarisation. (In fluorescence polarisation assays a small probe gives low polarisation when free and higher when bound to something large.)
Another experiment has as its target hOTUB1 F193R (human, UniProt Q96FW1 1-271, F193R). Description: fluorescence polarisation.
In the next experiment the target is hOTUB1 H217W (human, UniProt Q96FW1 1-271, H217W). Briefly: fluorescence polarisation.
Experiment [2] addresses T2, Caenorhabditis elegans OTUB1 (Caenorhabditis elegans, UniProt Q9XVR6).
T2 sequence: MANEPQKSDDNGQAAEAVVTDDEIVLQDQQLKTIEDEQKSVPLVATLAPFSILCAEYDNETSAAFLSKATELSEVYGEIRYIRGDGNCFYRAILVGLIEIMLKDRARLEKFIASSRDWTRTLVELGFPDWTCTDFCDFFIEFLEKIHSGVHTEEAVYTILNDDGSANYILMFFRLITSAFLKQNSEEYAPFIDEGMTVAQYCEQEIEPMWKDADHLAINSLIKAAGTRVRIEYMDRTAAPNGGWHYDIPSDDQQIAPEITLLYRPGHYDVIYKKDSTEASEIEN
Briefly: fluorescence polarisation.

The target in another experiment is His6-tagged human OTUB1 (human, UniProt Q96FW1 1-271). Briefly: pull-down.
In the next experiment the target is hOTUB1Δ15 (human, UniProt Q96FW1 16-271). Briefly: pull-down.
For experiment [3], the target named is T1, human OTUB1 (OTU domain-containing …). Briefly: SEC.

By Kd is commonly meant the free concentration of one partner at which half of the binding sites on the other are occupied at equilibrium, for simple one-to-one binding. Lower therefore signals a tighter complex.

T1 sequence (Q96FW1 whole entry, the tested form may be a part): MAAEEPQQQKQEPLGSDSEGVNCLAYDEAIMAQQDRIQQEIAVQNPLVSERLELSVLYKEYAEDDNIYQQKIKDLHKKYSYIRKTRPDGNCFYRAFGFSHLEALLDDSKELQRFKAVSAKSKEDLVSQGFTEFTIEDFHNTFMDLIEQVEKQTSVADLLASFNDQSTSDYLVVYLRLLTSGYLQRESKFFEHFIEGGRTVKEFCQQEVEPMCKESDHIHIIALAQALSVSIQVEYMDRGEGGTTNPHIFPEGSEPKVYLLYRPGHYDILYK
Chain of His6-tagged human OTUB1 (Q96FW1 whole entry): as the sequence (Q96FW1 whole entry, the tested form may be a part) above
Chain of hOTUB1 F193W (Q96FW1 whole entry F193W): as the sequence (Q96FW1 whole entry, the tested form may be a part) above, with F193W counted along it
Chain of hOTUB1 F193R (Q96FW1 whole entry F193R): as the sequence (Q96FW1 whole entry, the tested form may be a part) above, with F193R counted along it
Chain of hOTUB1Δ15 (Q96FW1 16-271, stated change not applied): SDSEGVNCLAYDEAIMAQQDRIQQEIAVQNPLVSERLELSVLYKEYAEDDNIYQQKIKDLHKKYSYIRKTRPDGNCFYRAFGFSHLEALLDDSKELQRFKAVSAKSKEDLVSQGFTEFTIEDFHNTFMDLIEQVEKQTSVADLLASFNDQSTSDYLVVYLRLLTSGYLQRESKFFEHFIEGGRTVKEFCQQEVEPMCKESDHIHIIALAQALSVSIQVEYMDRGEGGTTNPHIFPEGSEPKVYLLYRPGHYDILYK
Chain of hOTUB1 H217W (Q96FW1 whole entry H217W): as the sequence (Q96FW1 whole entry, the tested form may be a part) above, with H217W counted along it

B1: fluorescein-labeled human UBC13 (enzyme)
chain: MAGLPRRIIKETQRLLAEPVPGIKAEPDESNARYFHVVIAGPQDSPFEGGTFKLELFLPEEYPMAAPKVRFMTKIYHPNVDKLGRICLDILKDKWSPALQIRTVLLSIQALLSAPNPDDPLANDVAEQWKTNEAQAIETARAWTRLYAMNNI
modifications: labeled with fluorescein-5-maleimide
Take B1: the Kd in experiment [1] is 7.04 µM; in experiment [2], 58.5 µM. The binding result with hOTUB1 F193W, with hOTUB1 F193R and in the experiment with hOTUB1 H217W was “binds” in each case.

B2: UBC13^C87S~Ub oxyester (complex)
chain 1: MAGLPRRIIKETQRLLAEPVPGIKAEPDESNARYFHVVIAGPQDSPFEGGTFKLELFLPEEYPMAAPKVRFMTKIYHPNVDKLGRISLDILKDKWSPALQIRTVLLSIQALLSAPNPDDPLANDVAEQWKTNEAQAIETARAWTRLYAMNNI
chain 2: […]
As for B2, the binding result with His6-tagged human OTUB1 and with hOTUB1Δ15 was “binds” each time.

B3: human UBC13 (UBE2N) (enzyme)
chain: MAGLPRRIIKETQRLLAEPVPGIKAEPDESNARYFHVVIAGPQDSPFEGGTFKLELFLPEEYPMAAPKVRFMTKIYHPNVDKLGRICLDILKDKWSPALQIRTVLLSIQALLSAPNPDDPLANDVAEQWKTNEAQAIETARAWTRLYAMNNI
Take B3: the binding result in experiment [3] is “binds”.
